Ends that are not written are not given here.

The target of assay [1] is full-length San1 (lysine residues changed to arginines) (Saccharomyces cerevisiae) (UniProt P22470).
Assay [2] concerns the target San1_(1–303) (lysine residues changed to arginines) (Saccharomyces cerevisiae) (UniProt P22470).
Assay [3] has the same target. This is another data set of the same source.

B1: San1 peptide, radiolabeled (peptide)
peptide: Ac-CGSRRGSYNASSGEQMLSRTGFFLVLIVGQPLHNPVK
modifications: also: 32P phosphate added by cAMP-dependent protein kinase, residue not given here
For B1, the multi-turnover ubiquitylation: fraction of peptide substrate ubiquitylated, 5 to 15 min, substrate to San1 ratios 6:1 to 18:1 in assay [1] amounted to 50%. In addition, in assay [2], the multi-turnover ubiquitylation: fraction of peptide substrate ubiquitylated, same incubation period and 18:1 substrate to ligase ratio came to 15%.

In assay [3], Ac-CGSRRGSYNASSGEQMLSRTGFFLVLIVGQPLHNPVK [San1 peptide, unlabeled] had a limited proteolysis with chymotrypsin: stability of San1(1-303) with peptide substrate against without substrate of 30 fold and a limited proteolysis: fraction of radiolabeled San1(1-303) intact with chymotrypsin after 30 min, with excess peptide substrate of 50%.

(Values after article PMC8615460.)
